Values quoted from earlier work in publication PMC2962622.

Target: NIFK 44-residue phosphopeptide (Homo sapiens) (UniProt Q9BYG3)
Chain of UniProt Q9BYG3 (Q9BYG3 2-293): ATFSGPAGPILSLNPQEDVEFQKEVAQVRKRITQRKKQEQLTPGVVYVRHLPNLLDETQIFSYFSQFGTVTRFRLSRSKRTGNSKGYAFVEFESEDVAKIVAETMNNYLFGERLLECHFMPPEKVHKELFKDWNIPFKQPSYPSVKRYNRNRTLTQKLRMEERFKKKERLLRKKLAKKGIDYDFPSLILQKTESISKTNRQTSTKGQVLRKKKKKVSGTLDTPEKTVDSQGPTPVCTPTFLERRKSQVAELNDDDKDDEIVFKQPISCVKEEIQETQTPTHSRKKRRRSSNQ

Kd: 77 nM
Substance: Ki67 FHA (from UniProt P46013)
